± gives the standard error. For part of these data: This sample holds only a part of the variants without activity.
B1: glmS ribozyme (parent)
chain: AUAAAAGCGCCAGAACUACAGAAAUGUAGUUGACGAGGAGGAGGUUUAUCGAAUUUUCGGCGGAUGCCUCCAAA

Tests used:
Settings in all cases: with glucosamine-6-phosphate
glucosamine-6-phosphate [1] = variants of: B1; experiment: kcat; higher = faster cleavage; RNA array
Procedure, shortened: (§1)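 The measurements used barcoded ribozyme variants on sequenced MiSeq chips, transcribed in situ by E. coli RNA polymerase and tracked at 37 °C with a hybridised Cy3 probe. Glucosamine-6-phosphate, 40 μM to 10 mM in HEPES/KCl/Mg(OAc)2 buffer, was flowed in while tiles were imaged over ~14 h. Baseline-normalised signals, also normalised to non-cleaving reference variants, gave per-tile medians that were fit to one- or two-exponential decays for kobs. kcat and KM resulted from weighted Michaelis–Menten fits across concentrations.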

glucosamine-6-phosphate [2] = variants of: B1; experiment: KM; higher = weaker cofactor use; RNA array
Procedure, shortened: as §1

glucosamine-6-phosphate [3] = variants of: B1; experiment: self-cleavage kobs at 40 uM GlcN6P; higher = faster cleavage; RNA array
Procedure, shortened: as §1

glucosamine-6-phosphate [4] = variants of: B1; experiment: self-cleavage kobs at 160 uM GlcN6P; higher = faster cleavage; RNA array
Procedure, shortened: as §1

glucosamine-6-phosphate [5] = variants of: B1; experiment: self-cleavage kobs at 640 uM GlcN6P; higher = faster cleavage; RNA array
Procedure, shortened: as §1

glucosamine-6-phosphate [6] = variants of: B1; experiment: self-cleavage kobs at 2500 uM GlcN6P; higher = faster cleavage; RNA array
Procedure, shortened: as §1

glucosamine-6-phosphate [7] = variants of: B1; experiment: self-cleavage kobs at 10000 uM GlcN6P; higher = faster cleavage; RNA array
Procedure, shortened: as §1

Row | Variant | kcat (glucosamine-6-phosphate [1]) [s⁻¹] | KM (glucosamine-6-phosphate [2]) [µM] | self-cleavage kobs at 40 uM GlcN6P (glucosamine-6-phosphate [3]) [s⁻¹] | self-cleavage kobs at 160 uM GlcN6P (glucosamine-6-phosphate [4]) [s⁻¹] | self-cleavage kobs at 640 uM GlcN6P (glucosamine-6-phosphate [5]) [s⁻¹] | self-cleavage kobs at 2500 uM GlcN6P (glucosamine-6-phosphate [6]) [s⁻¹] | self-cleavage kobs at 10000 uM GlcN6P (glucosamine-6-phosphate [7]) [s⁻¹]
1 | A15C U31A | 0.00691 ± 0.0013 | 1860 ± 480 | 0.000156 ± 2.2e-05 | 0.000607 ± 0.00013 | 0.0015 ± 0.00035 | 0.00303 ± 0.00078 | 0.0067 ± 0.001
2 | A12U C67U | 0.0497 ± 0.018 | 2250 ± 970 | 0.000918 ± 0.0001 | – | 0.0142 ± 0.0033 | 0.0421 ± 0.012 | 0.0378 ± 0.0074
3 | A12C A53C | 0.00399 ± 0.0011 | 2090 ± 920 | 0.000109 ± 1.4e-05 | 0.000285 ± 8.1e-05 | 0.000662 ± 0.00012 | 0.00223 ± 0.00038 | 0.00352 ± 0.00041
4 | G9A U31A | 2.13e-05 ± 6.3e-07 | – | < 1e-05 | < 1e-05 | < 1e-05 | – | –
5 | A6C C16U | 0.000207 ± 4.9e-05 | – | – | – | – | 3.13e-05 ± 9e-06 | 8.88e-05 ± 1.1e-05
6 | G35C U65G | < 1e-05 | 1500 ± 360 | < 1e-05 | < 1e-05 | – | < 1e-05 | –
7 | G7A C70U | 6.43e-05 ± 1.1e-05 | 5580 ± 2200 | – | – | – | – | 4.14e-05 ± 7.5e-06
8 | U55G C58G | 0.000161 ± 1.7e-05 | 6790 ± 1400 | – | – | – | 4.5e-05 ± 8.6e-06 | 9.57e-05 ± 1.1e-05
9 | A12U U46A | 0.00538 ± 0.00031 | 1720 ± 140 | 0.000119 ± 1.5e-05 | – | 0.00161 ± 0.00033 | 0.00326 ± 0.0006 | 0.0045 ± 0.00062
10 | A15C U49G | 0.000113 ± 1.2e-05 | 1520 ± 550 | – | – | – | 8.06e-05 ± 2.4e-05 | 9.51e-05 ± 1.9e-05
11 | A12G A15G C70A | 0.000107 ± 1.9e-05 | 2120 ± 890 | – | – | – | 5.85e-05 ± 1.1e-05 | 8.6e-05 ± 3.1e-05
12 | G32C G60A | < 1e-05 | – | < 1e-05 | – | – | – | –
13 | A15C A52U | 0.000104 ± 4.8e-06 | 1830 ± 260 | – | – | – | 6.2e-05 ± 1.7e-05 | 8.65e-05 ± 1.9e-05
14 | G32A A52G | 0.000151 ± 1.3e-05 | 1760 ± 480 | – | – | 5.19e-05 ± 2e-05 | 8.18e-05 ± 1.4e-05 | 0.000131 ± 1.5e-05
15 | A14C C16U | 0.00104 ± 0.00016 | 922 ± 250 | 5.34e-05 ± 1.1e-05 | 0.000144 ± 1.9e-05 | 0.000451 ± 4.8e-05 | 0.000655 ± 7.7e-05 | 0.00118 ± 0.00016
16 | U56A C70G | 0.000119 ± 1.4e-05 | – | 4.01e-05 ± 1e-05 | 8.18e-05 ± 1e-05 | 0.000105 ± 1.1e-05 | 0.000153 ± 1.5e-05 | 0.0001 ± 1.1e-05
17 | U57C U65G | 3.4e-05 ± 3.5e-06 | – | – | – | – | 3.03e-05 ± 1.3e-05 | 3.07e-05 ± 1.1e-05

Row | Variant | kcat (glucosamine-6-phosphate [1]) [s⁻¹] | KM (glucosamine-6-phosphate [2]) [µM] | self-cleavage kobs at 40 uM GlcN6P (glucosamine-6-phosphate [3]) [s⁻¹] | self-cleavage kobs at 160 uM GlcN6P (glucosamine-6-phosphate [4]) [s⁻¹] | self-cleavage kobs at 640 uM GlcN6P (glucosamine-6-phosphate [5]) [s⁻¹] | self-cleavage kobs at 2500 uM GlcN6P (glucosamine-6-phosphate [6]) [s⁻¹] | self-cleavage kobs at 10000 uM GlcN6P (glucosamine-6-phosphate [7]) [s⁻¹]
18 | A64U U65G | 1.26e-05 ± 1e-06 | – | – | – | – | – | –
19 | A42C U46A | < 1e-05 | – | < 1e-05 | – | < 1e-05 | – | –
20 | C50U A64G | 0.000283 ± 5e-05 | – | – | – | 2.41e-05 ± 1e-05 | 5.38e-05 ± 7.8e-06 | 0.000141 ± 1.7e-05
21 | U45G C71U | 0.00857 ± 0.0011 | 2380 ± 450 | 0.000147 ± 1.7e-05 | 0.000517 ± 8.8e-05 | 0.00152 ± 0.00031 | 0.00519 ± 0.00062 | 0.00653 ± 0.0008
22 | G13U C70G | 4.04e-05 ± 3e-06 | – | – | – | 4.63e-05 ± 9.7e-06 | 3.94e-05 ± 6.3e-06 | 3.71e-05 ± 6.7e-06
23 | A36C C71A | < 1e-05 | – | – | – | – | – | –
24 | G29C U47A | 0.00173 ± 0.00071 | – | 4.95e-05 ± 1.1e-05 | 7.89e-05 ± 1.6e-05 | 0.000293 ± 3.8e-05 | 0.000579 ± 8.4e-05 | 0.00158 ± 0.0002
25 | A52G U54G | 0.00117 ± 0.00021 | 3060 ± 840 | – | 6.71e-05 ± 1.6e-05 | 0.000183 ± 2.3e-05 | 0.000616 ± 8.2e-05 | 0.000855 ± 0.00012
26 | A52G U54A | 0.00109 ± 0.00027 | 1560 ± 590 | – | 9.56e-05 ± 1.7e-05 | 0.000442 ± 7.6e-05 | 0.00057 ± 0.00011 | 0.00101 ± 0.0002
27 | A15G G51U C71A | 1.45e-05 ± 1.7e-06 | 510 ± 210 | – | – | – | – | < 1e-05
28 | G40U C71G | 0.00552 ± 0.00087 | 1200 ± 280 | 0.000211 ± 2.1e-05 | 0.000498 ± 8.3e-05 | 0.00193 ± 0.00025 | 0.00351 ± 0.00048 | 0.00519 ± 0.00058
29 | G38A C61A | < 1e-05 | – | – | – | – | – | –
30 | U30G C67A | 0.00145 ± 0.00047 | – | 6.13e-05 ± 1.3e-05 | 0.000175 ± 3.3e-05 | 0.000561 ± 9.1e-05 | 0.00063 ± 0.00017 | 0.00188 ± 0.00029
31 | A14U U49C | < 1e-05 | – | < 1e-05 | < 1e-05 | – | – | –
32 | A12U U45A A53U | 0.125 ± 0.042 | 1100 ± 390 | 0.00437 ± 0.0009 | – | – | – | –
33 | A15C U56A G63C C70A | 5.44e-05 ± 1.8e-05 | – | – | 5.41e-05 ± 2.2e-05 | – | 7.34e-05 ± 3.6e-05 | –

Source: the supplement of paper PMC7125110
